Molecular target: purified human CD117 ectodomain (R&D Systems #332-SR) (human) (UniProt P10721)
Test: BLI (Octet Red96), IgG on anti-human Fc sensors, human CD117 ectodomain at 33.3 and 11 nM, 1:1 fit

B1: Antibody 61 (antibody, human IgG1, kappa, V domains shown)
VH: EVQLLESGGGLVQPGGSLRLSCAASGFTFSSYVMIWVRQAPGKGLEWVSSISGDSVTTYYADSVKGRFTISRDNSKNTLYLQMNSLRAEDTAVYYCAKGPPTYHTNYYYMDVWGKGTTVTVSS
VL: DIQMTQSPSSVSASVGDRVTITCRASQGISSWLAWYQQKPGKAPKLLIYAASSLQSGVPSRFSGSGSGTDFTLTISSLQPEDFATYYCQQTNSFPYTFGGGTKVEIKR
- Kd: 24.9 nM
- koff: 0.00533 s⁻¹
- kon: 214000 M⁻¹ s⁻¹

— patent US20190144558A1
